The values that follow come from the DeepSol protein solubility set.

A short description of this data set: soluble on expression in E. coli; label from the status in PepcDB or PDB records.
“MAKKVFIGATGQNCGKTTMSVSLMHLARQKYQRVGFIKPIGPKIEMYNGLTVDMDAILMARTFGLEEDLALMNPVPLPKNFTRDYLSGKFDCHTLKKKIVEAFEILDQSYDFLIIEGAGHCGVGSVIGLSNACVAHMLGAPVIVVTDSGIGSAIDAVHLNLALYEKEEADVRMVIVNKLRSDKRDSILGFLRRGFPGRSLQVTGGFNYSPVLANPTLSHIGKLLNLPVHGDADGHSRIIHHIHLGAASSQRVVDALEDATLLVLTSSRDELIVTLSSLYHIPSYRDKIAGLVIAGHMPVSEITQQILDDSMIPYIRVHDSTARVFTTLMEDVSKITAEDQEKLNWIRANAENEIDFEAIDALLLEHHHHHH”: the “soluble on expression in E. coli” value is on record as “not soluble”.
The same measure for “MSLRHLQSTIHPELDHLDDKIIFQRNAARAIVLDGEDVLLLYTERYHDYTLPGGGIDEGEDVIAGLVRELEEETGAQNIHSIKPFGIFEEFRPWYKDDADVMHMISYCYTCKIDRELGETAYEDYEVKNGMRPVWMNVHEAIAHNEKTMAESPKKGMSIERETFLLHLIAKELLEGHHHHHH”: “soluble”; for “AHHHHHHGSGASPVIVPVRCFTCGKVIGDKYYEFKRRVEAGEDPEKVLDDLGLERYCCRRMLLSHVELIDDIMHYRVY”: “not soluble”; for “MAHHHHHHMDDRDAELDIDEDGIFTCEEVNALTSAMWKAEGLTRVPRSRRHHRQAPPQQRTSAAAVDSLQPGPLAASTTTPGGGSVTDVTLQPLLNTTGEDGGHRSLGGDIRGLPSSFSNAPLFASATTTAAGLSSTSSPQPTSQALHHHHNDVDRQLGGNSNTSGRRMAGGGGSVGGEGSRSSSSVYEVLIQRVLAMDTASDIWSLGVLLYGMCADTADAQQQEEQQQHQASASTTTPTLNPPHATAAGSSPVRAHEGVAGTLPPAMPTCTCASRLAQRAFAALLGDLYDLAVTGVPSGDRGNNGWSCDGVDVEQLDEAADDHLRWPRSCALEEEVMQAIGEAGYTHVFASVLASMLSPVAARRPSAGDIVNQLRLVTTGAPATLASNIMRGGGGGLADADDEYSVARQSPPPRIQHSGGASDATSSVMLHEQTACMALRQR”: “not soluble”.
As for “AHHHHHHGSRVVKKIGLIGGMTPESTCYYYRKYIEISRKKFRKYEYPELLIYSINFRDFFMNPEGWEGRKRILINAAKALERAGAELIALTANTPHIVFDDIQKEISVPMVSIIDAVAEEILSHGLKKVLLLETKTTMSSGFYVNALKNKGLEVVVPNEEEQEELNRIIFEELAFENLKSKRWIIDLIERYAKEEGVEGVILGCTELPLAVKRGDVSIEVFDSAEIHIKKLIEVASQSI”, the “soluble on expression in E. coli” value is recorded as “not soluble”.
“MRVLILGGTGNAAELAARVATIQGVDAITSLAGRTREPSVPLGDLRVGGFGGVAGLASYLQAMQIDLLIDATHPFASQISFNAADAAKEVGVPRLMLIRPPWEKGSGDRWMEVDNVEAAAASLQNQAHRVFLTVGRQELAAFAHLEEIWFLMRMIDPPVDDALVPPGMVLCDRGPFNLNNERQILIDRKIDTIVSKNSGGDATKPKIIAARELGVKVVMVNRPAIPPGEQVSDVEGALVWLLEKLHN”: the “soluble on expression in E. coli” value is reported as “not soluble”.
Next, “MPYKNILTLISVNNDNFENYFRKIFLDVRSSGSKKTTINVFTEIQYQELVTLIREALLENIDIGYELFLWKKNEVDIFLKNLEKSEVDGLLVYCDDENKVFMSKIVDNLPTAIKRNLIKDFCRKLS”: “soluble”.
With “MGSDKIHHHHHHMDYNQTVLSHLQKFWKHHDIKGFTWTLGRIVEELPDFQVFQVIPNHEDEPWVYVSSGIGQFLGQEFFIISPFETPEHIETLAMLASASMHYPDQFQLGKTVNIGRPWVEQSSFRHFLISLPYPYGQELEYMDNVRFFWLLPITQTERLFLNTHSVEELETKFDEAGIDYLDINRASTVWQAG”, the “soluble on expression in E. coli” value is given as “not soluble”.
Next, “MVVEVDSMPAASSVKKPFGLRSKMGKWCCRCFPCYRESGKSNVGTSGDHDDSAMKTLRSKMGKWCHHCFPCCRGSGKSNVGASGDHDDSAMKTLRNKMGKWCCHCFPCCRGSGKSKVGAWGDYDDSAFMEPRYHVRGEDLDKLHRAAWWGKVPRKDLIVMLRDTDVNKKDKQKRTALHLASANGNSEVVKLLLDRRCQLNVLDNKKRTALIKVCSSQLYQHEAVQCQEDECALMLLEHGTDPNIPDEYGNTTLHYAIYNEDKLMAKALLLYGADIESKNKHGLTPLLLGVHEQKQQVVKFLIKKKANLNALDRYGRTALILAVCCGSASIVSLLLEQNIDVSSQDLSGQTAREYAVSSHHHVICQLLSDYKEKQMLKISSENSNPENVSRTRNK”: “not soluble”.
The same measure for “GAMGSQQIATAKDKYEWLVSRIVKNHNENWLSVSRKMQASPEYQDYVYLEGTQKAKKLFLQHIHRLKHE”: “soluble”.
The same measure for “MVVVMNPEQIYGVSNIKSHIPVMLDIEESNYDAWRELFLTHCLSFDVMGHIDGTLLPTNANDVNWQKRDGIVKLSLYGTLTPKQFQGSFVTSSTSRDIWLRIKNQFRNNKDARALRLDSELRTKDIGDMRVADYYRKMKKLADSLRNVDVPVTDRNLVMYVLNGLNPKFDNIINVIKHRQPFPSFDDAATMLQEEEDRLKRAIKPNPTHVDHSSSSTVLACSEAPPVTNFQRSGGNQMGYRGRGRGNNIFRGRGGRFSYYNMPTFNSWNRPPFYQNSYQMWNHPWGYPPYVNTNGGNGLGLLGPRPAY”: “soluble”.
As to “MANQLAAVLGTGQTHYVAKRHDVSMAGLVREAIDRAMEDARVGWDDIDAVVIGKAPDLFEGSMMPELAMSDALGANGKPLLRVHTAGSVGGSTAVVASSLVKSGVHKRVLTVAWEKQSESNAMWALSTPIPFHMPVGAGAGGYFAPHVRSYIRRSGAPDHIGAMVAVKDRLNGSLNPYAHLKQPDITLESVQASQMLWDPIRYDETCPSSDGACAMVIGNEEAAEQVTADGREVAWIHATAMRTEPTTFAGRDQVNPQAGRDAAAALWKAAGIKDPLDEIDVAEIYVPFSWFEPMWLENLGFVSEGEGWKLTEAGETAIGGRLPLNASGGVLSSNPIGASGMIRFAESAMQVMHRAGDHQVKDARKALGHAYGGGSQYFSMWVVGSDRPNN”, the “soluble on expression in E. coli” value was “not soluble”.
“MQEQAQQFIFKVTDKAVEEIKKVAQENNIENPILRIRVVPGGCSGFQYAMGFDDTVEEGDHVFEYDGVKVVIDPFSMPYVNGAELDYVVDFMGGGFTIRNPNATGSCGCGSSFSCGLEHHHHHH”: the “soluble on expression in E. coli” value is given as “soluble”.
Next, “GSSDVQYTEVQVSSAESHKDLGKKDTETVYSEVRKAVPDAVESRYSRTEGSLDGT”: “soluble”; “MSLELFRSKTCALCKGRKLMCGRPRCPILEKFRVAKSVESKINKKEIFGASPPSVFVGEFGYPNVRIGPMVPPVEGDTSFMDDPSRWENVTILEIMEYRSMLVMGETNAHVQVKKNLNFLTHIQELAMANKPVDSEILLKKTPKLDLITGGFTPPVGPRETMLKFKLAENPKIPKKTDYIVNDELKANEGMISLYDSGFDEYYIIKLLSTGLLGVNKKLVPTKWSITAAQDLLGKYVKKSILEYSQINEYEVYFKNFLGNRYAVLLIPDIYAYEMLEVWLKGSLFSGESYNVLSDFEDTTGMKGYADEITGAFYACRLSILEYLKKRKKQAKILVFREITPEYYAPVGVWQIRTGVKLAMENRVGRFNNLKSALESIKKHLEVPIDDYKTKSKILKSNDRQITLDKFFEGHHHHHH”: “not soluble”; “DNAVGPPASAPPPPSVPVAKALSRTLAPTAEFTGFLAAPETVELRSRVGGTLDAISVPEGRLVSRGQLLFQIDPRPFEVALDTAVAQLRQAEVLARQAQADFDRIQRLVASGAVSRKNADDVTATRNARQAQMQSAKAAVAAARLELSWTRITAPIAGRVDRILVTRGNLVSGGVAGNATLLTTIVSHNPMYVYFDIDEATWLKALRHTRSDKNPPVVNMGLTTDNGLPYQGVLDFMGNQMNRSTGTIRARAVIPDPDGMLSPGLFARISLPIGEPRETVLIDDLAVSADQGKNYVLIVGKENQVEYRPVELGQMVD”: “not soluble”.
Next, “MGSDKIHHHHHHMSDPAGKPCIICVAITGSLPTKENNPAVPITLAEQVESTHEAFEAGASIAHCHVRDDEGRPTSDPDRFAALKEGLERHCPGMIVQLSTGGRSGAGQARGAMLPLCPDMASLSVGSNNFPTRVYENPPDLVDWLAAEMLKYDIKPEIEAFDLSHILQAKRMAGDGRLAGTPYVQFVMGVRNAMPADRDVFDYYIHTVRRLFGEDAPWCAAGIGPSQIVLNEWAISSGGHARTGLEDNVRLDRDRLAPSNAALVGRAVELCEKYERPVATWRQARQILGLRMV”: “not soluble”.
